The test has as its target integrin αVβ6 heterodimer (integrin alpha-V, ITGAV, and integrin beta-6, ITGB6) (human (endogenous in HEK293T)) (UniProt P18564).
UniProt P18564, sequence (P18564 whole entry, looked up, one chain of several): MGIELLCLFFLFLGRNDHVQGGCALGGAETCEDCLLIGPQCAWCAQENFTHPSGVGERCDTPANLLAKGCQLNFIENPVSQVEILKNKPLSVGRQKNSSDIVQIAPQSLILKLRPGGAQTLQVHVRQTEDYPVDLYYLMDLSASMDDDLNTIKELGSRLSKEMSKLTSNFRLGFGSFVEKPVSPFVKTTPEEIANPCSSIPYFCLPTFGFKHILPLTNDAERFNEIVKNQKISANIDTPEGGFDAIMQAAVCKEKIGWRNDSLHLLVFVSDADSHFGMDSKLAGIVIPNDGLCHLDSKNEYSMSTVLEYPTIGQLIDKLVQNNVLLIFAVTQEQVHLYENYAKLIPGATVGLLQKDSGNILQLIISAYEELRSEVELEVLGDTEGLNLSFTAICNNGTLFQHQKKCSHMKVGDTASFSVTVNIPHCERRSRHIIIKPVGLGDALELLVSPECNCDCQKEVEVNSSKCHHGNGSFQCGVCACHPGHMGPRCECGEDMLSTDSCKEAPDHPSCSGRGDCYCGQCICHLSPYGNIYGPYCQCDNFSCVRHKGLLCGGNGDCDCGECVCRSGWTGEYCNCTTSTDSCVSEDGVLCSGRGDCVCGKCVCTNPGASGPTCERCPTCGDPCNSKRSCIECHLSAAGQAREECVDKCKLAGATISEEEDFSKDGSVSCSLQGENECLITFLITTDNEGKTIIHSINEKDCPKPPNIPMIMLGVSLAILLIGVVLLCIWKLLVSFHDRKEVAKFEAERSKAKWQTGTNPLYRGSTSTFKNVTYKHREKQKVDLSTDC

Take “control AAV9 viral particle (unmodified AAV9 capsid) (from UniProt Q6JC40 1-736; Q6JC40 138-736; Q6JC40 203-736) (complex)”: the AAV9-GFP transduction (GFP+ cells after 24 h) of HEK293T, Hela or U87 cells pre-treated for 2 h with 20 µg/ml of a mouse anti-human αVβ6 functional blocking antibody, against PBS control turned out to be 50%.

(Values after article PMC5676692.)
